Experimental data as given in publication PMC10786891, “Massively parallel profiling of RNA-targeting CRISPR-Cas13d”.
Numbering of substitutions follows the chain as printed. In names and notes the source's numbering stands.

T1: EsCas13d, nuclease-dead (Eubacterium siraeum, UniProt B0MS50, R295A;H300A;R849A;H854A)
T1 sequence: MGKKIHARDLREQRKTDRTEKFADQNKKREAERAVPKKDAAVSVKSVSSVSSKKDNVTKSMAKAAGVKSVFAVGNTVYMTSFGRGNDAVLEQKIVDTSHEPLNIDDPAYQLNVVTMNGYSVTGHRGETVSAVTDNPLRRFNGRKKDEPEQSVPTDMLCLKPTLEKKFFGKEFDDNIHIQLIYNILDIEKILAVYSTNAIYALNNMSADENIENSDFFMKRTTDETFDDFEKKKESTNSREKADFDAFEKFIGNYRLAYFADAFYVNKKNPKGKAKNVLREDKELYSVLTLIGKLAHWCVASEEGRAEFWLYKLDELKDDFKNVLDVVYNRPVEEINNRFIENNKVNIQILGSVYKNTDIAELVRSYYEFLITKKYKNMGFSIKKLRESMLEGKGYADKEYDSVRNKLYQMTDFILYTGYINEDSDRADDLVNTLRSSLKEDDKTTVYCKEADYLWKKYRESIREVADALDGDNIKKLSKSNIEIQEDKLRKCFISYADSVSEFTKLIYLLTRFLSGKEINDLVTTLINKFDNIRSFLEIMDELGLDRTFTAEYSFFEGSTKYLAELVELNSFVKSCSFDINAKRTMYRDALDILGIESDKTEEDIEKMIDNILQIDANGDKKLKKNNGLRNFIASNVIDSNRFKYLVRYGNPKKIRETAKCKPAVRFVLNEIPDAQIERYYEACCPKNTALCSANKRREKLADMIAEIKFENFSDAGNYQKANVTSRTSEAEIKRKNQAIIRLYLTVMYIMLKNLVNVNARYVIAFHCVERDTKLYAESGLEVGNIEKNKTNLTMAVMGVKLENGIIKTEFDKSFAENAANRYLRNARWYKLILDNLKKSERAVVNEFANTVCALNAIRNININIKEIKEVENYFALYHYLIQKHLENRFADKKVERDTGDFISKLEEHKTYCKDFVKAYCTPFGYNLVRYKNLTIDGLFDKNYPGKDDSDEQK

B1: target 1 insC 3' of 11 (mixed)
RNA 1: CACCCGUGCAAAAAUGCAGGGGUCUAAAACUGAGCGGAUAACCUCUCUAUGG
RNA 2: GGGAAUGGAUCCACAUCUACGAAUUCGUACCAUAGAGAGGUCUAUCCGCUCACCGAGAUCGGAAGAGCACACGU
B2: target 1 insG 3' of 18,insG 3' of 14 (mixed)
RNA 1: B1 RNA 1
RNA 2: GGGAAUGGAUCCACAUCUACGAAUUCGUACCAUAGGAGAGGGUUAUCCGCUCACCGAGAUCGGAAGAGCACACGU
B3: target 1 insU 3' of 7,insA 3' of 2 (mixed)
RNA 1: B1 RNA 1
RNA 2: GGGAAUGGAUCCACAUCUACGAAUUCGUACCAUAGAGAGGUUAUCUCGCUCAACCGAGAUCGGAAGAGCACACGU
B4: target 1 insG 3' of 16,insA 3' of 4 (mixed)
RNA 1: B1 RNA 1
RNA 2: B2 RNA 2 with G36A, A37G, G42U, U44A, A45U, U46C, C48G, G49C, C50A
B5: target 1 insA 3' of 21,insU 3' of 9 (mixed)
RNA 1: B1 RNA 1
RNA 2: B2 RNA 2 with U33A, A34U, G35A, G42U, U44A, A45U
B6: target 1 insU 3' of 18,insA 3' of 17 (mixed)
RNA 1: B1 RNA 1
RNA 2: B2 RNA 2 with G35U, G38A, A39G, G40A
B7: target 1 insC 3' of 18,insU 3' of 2 (mixed)
RNA 1: B1 RNA 1
RNA 2: GGGAAUGGAUCCACAUCUACGAAUUCGUACCAUACGAGAGGUUAUCCGCUCUACCGAGAUCGGAAGAGCACACGU
B8: target 1 insU 3' of 9,insU 3' of 5 (mixed)
RNA 1: B1 RNA 1
RNA 2: B3 RNA 2 with C45U, U46C, C49U, U50C, C51U, A52C
B9: target 1 insA 3' of 8,insU 3' of 4 (mixed)
RNA 1: B1 RNA 1
RNA 2: B3 RNA 2 with C45A, U46C, C51U, A52C
B10: target 1 insC 3' of 13,insC 3' of 8 (mixed)
RNA 1: B1 RNA 1
RNA 2: B2 RNA 2 with G36A, A37G, G38A, A39G, G40C, G42U, U44A, A45U, U46C
B11: target 1 insC 3' of 20,insG 3' of 4 (mixed)
RNA 1: B1 RNA 1
RNA 2: B7 RNA 2 with U33C, A34U, C35A, U50G, C51U, U52C
B12: target 1 U3G,G15C (mixed)
RNA 1: B1 RNA 1
RNA 2: GGGAAUGGAUCCACAUCUACGAAUUCGUACCAUAGACAGGUUAUCCGCGCACCGAGAUCGGAAGAGCACACGU
B13: target 1 insC 3' of 13 (mixed)
RNA 1: B1 RNA 1
RNA 2: B1 RNA 2 with G40C, U41G, C42U
B14: target 1 insC 3' of 15 (mixed)
RNA 1: B1 RNA 1
RNA 2: B1 RNA 2 with A38C, G39A, U41G, C42U
B15: target 1 insC 3' of 17,insU 3' of 9 (mixed)
RNA 1: B1 RNA 1
RNA 2: B2 RNA 2 with G36C, G42U, U44A, A45U
B16: target 1 insA 3' of 22,insA 3' of 22 (mixed)
RNA 1: B1 RNA 1
RNA 2: B2 RNA 2 with C31A, U33C, G35U, G36A, A37G, G38A, A39G, G40A
B17: target 1 insA 3' of 19,insC 3' of 19 (mixed)
RNA 1: B1 RNA 1
RNA 2: B2 RNA 2 with G35C, G36A, A37G, G38A, A39G, G40A
B18: target 1 insC 3' of 13,insA 3' of 3 (mixed)
RNA 1: B1 RNA 1
RNA 2: B7 RNA 2 with C35G, G36A, A37G, G38A, A39G, G40C, C51A, U52C
B19: target 1 insG 3' of 4,insG 3' of 3 (mixed)
RNA 1: B1 RNA 1
RNA 2: B3 RNA 2 with U46C, C47G, G48C, C49G, C51G, A52C
B20: target 1 U11A,G13A (mixed)
RNA 1: B1 RNA 1
RNA 2: B12 RNA 2 with C37G, G39A, U41A, G49U
B21: target 1 C2G,U19C (mixed)
RNA 1: B1 RNA 1
RNA 2: B12 RNA 2 with U33C, C37G, G49U, C50G
B22: target 1 U11A,G12U (mixed)
RNA 1: B1 RNA 1
RNA 2: B12 RNA 2 with C37G, G40U, U41A, G49U
B23: target 1 insG 3' of 16,insC 3' of 14 (mixed)
RNA 1: B1 RNA 1
RNA 2: B2 RNA 2 with G36A, A37G, G40C
B24: target 1 insC 3' of 17,insG 3' of 4 (mixed)
RNA 1: B1 RNA 1
RNA 2: B7 RNA 2 with C35G, G36C, U50G, C51U, U52C
B25: target 1 del3,del16 (mixed)
RNA 1: B1 RNA 1
RNA 2: GGGAAUGGAUCCACAUCUACGAAUUCGUACCAUAGGAGGUUAUCCGCCACCGAGAUCGGAAGAGCACACGU
B26: target 1 insG 3' of 21,insU 3' of 20 (mixed)
RNA 1: B1 RNA 1
RNA 2: B2 RNA 2 with A32G, U33A, A34U, G35U, G36A, A37G, G38A, A39G, G40A
B27: target 1 C2G,C7A (mixed)
RNA 1: B1 RNA 1
RNA 2: B12 RNA 2 with C37G, C45A, G49U, C50G
B28: target 1 insU 3' of 17 (mixed)
RNA 1: B1 RNA 1
RNA 2: B1 RNA 2 with A36U, G37A, A38G, G39A, U41G, C42U
B29: target 1 insG 3' of 16,insG 3' of 11 (mixed)
RNA 1: B1 RNA 1
RNA 2: B2 RNA 2 with G36A, A37G, G42U, U43G
B30: target 1 insG 3' of 21,insC 3' of 20 (mixed)
RNA 1: B1 RNA 1
RNA 2: B2 RNA 2 with A32G, U33A, A34C, G35U, G36A, A37G, G38A, A39G, G40A
B31: target 1 C4G,U19C (mixed)
RNA 1: B1 RNA 1
RNA 2: B12 RNA 2 with U33C, C37G, C48G, G49U
B32: target 1 C7G,G17A (mixed)
RNA 1: B1 RNA 1
RNA 2: B12 RNA 2 with G35A, C37G, C45G, G49U
B33: target 1 insG 3' of 18,insC 3' of 18 (mixed)
RNA 1: B1 RNA 1
RNA 2: B2 RNA 2 with G36C, A37G, G38A, A39G, G40A

These binders were tested against T1, EsCas13d, nuclease-dead (assay: crRNA (strand 1, pre-loaded); Mg2+; 40 mM Tris-HCl pH 7.5, 150 mM NaCl, 6 mM MgCl2, 1 mM DTT, 0.1% Tween-20, 0.2 mg/ml BSA; 25 C; 10 min per concentration, then washed). Details: tags: His6-TwinStrep-SUMO cleaved; N-terminal SNAP kept (SNAP-Surface 488); label: 3' end held by stalled T7 RNA polymerase.
B1 was tested, and the Kd was 29.8 ± 3.1 nM. Binder B2 has a Kd of 63 ± 5 nM. With B3 the Kd was 18.7 ± 1.5 nM. B4 gave a Kd of 10.5 ± 0.5 nM. With B5 the Kd was 24.4 ± 2.1 nM. Binder B6 has a Kd of 54 ± 7 nM. In the case of B7, the Kd is reported as 38 ± 7 nM. With B8 the Kd was 8 ± 1.5 nM. With B9 the Kd was 12.3 ± 0.7 nM. In the case of B10, the Kd is reported as 13.1 ± 0.4 nM. In the case of B11, the Kd is reported as 11.4 ± 0.9 nM. B12 gave a Kd of 34 ± 4 nM. For B13, the Kd was 9.1 ± 0.4 nM. B14 was tested, and the Kd was 16.3 ± 0.8 nM. Work on B15 yielded a Kd of 39 ± 7 nM. For B16, the Kd was 9.9 ± 0.6 nM. B17 gave a Kd of 21.5 ± 1.8 nM. B18 was tested, and the Kd was 6.88 ± 0.2 nM. For B19, the Kd was 8.2 ± 0.35 nM. B20 gave a Kd of 38.5 ± 2.8 nM. B21 showed a Kd of 18.5 ± 1 nM. With B22 the Kd was 5.1 ± 0.35 nM. Binder B23 has a Kd of 38 ± 5 nM. B24 showed a Kd of 30.9 ± 2.4 nM. With B25 the Kd was 85 ± 31 nM. In the case of B26, the Kd is reported as 58 ± 9 nM. B27 was tested, and the Kd was 6.22 ± 0.24 nM. B28 was tested, and the Kd was 14.1 ± 1.2 nM. In the case of B29, the Kd is reported as 50 ± 5 nM. B30 was tested, and the Kd was 15.3 ± 1.1 nM. Binder B31 has a Kd of 28 ± 6 nM. B32 was tested, and the Kd was 49 ± 5 nM. With B33 the Kd was 30.8 ± 1.3 nM.
